These results are taken from publication PMC11542851 (PLOS Pathogens, 2024).

Residue numbers refer to the chain shown, from its start. Like-named read-outs stand apart in the source and are kept apart here.

Experiment [1] addresses T1, SARS-CoV-2 RBD subunit (recombinant) (SARS-CoV-2 Wuhan-Hu-1, UniProt P0DTC2).
T1 construct: source: bought: Sino Biologics
In words: ELISA. The note with it: both partners purified. For orientation: ELISA stands for enzyme-linked immunosorbent assay.

In experiment [2] the target is RsSHC014 RBD, yeast-displayed (Bat SARS-like coronavirus RsSHC014, UniProt U5WLK5). Nature of the experiment: flow cytometry on cells. Conditions: one partner purified. For orientation: In flow cytometry, cells or beads pass a laser one at a time.
For experiment [3], the target named is SARS-CoV-1 RBD, yeast-displayed (SARS-CoV-1, strain  (P59594 …, UniProt P59594)). Nature of the experiment: flow cytometry on cells. Conditions: one partner purified.
Experiment [4] concerns the target SARS-CoV-2 Omicron XBB recombinant spike protein (trimer) (SARS-CoV-2 Omicron XBB (entry: XBB.1), strain).
Experiment [5] has as its target T1, SARS-CoV-2 RBD subunit (recombinant).

B1: C68.348 (antibody, V domains shown)
VH: QVQLQESGPRLVKSSGTLSLTCAVSGGSISSSKWWSWVRQPPGKGLEWIGEVYHGGSTNYNPSLKSRVTISVDKAKNQFSLKLSSVTAADSAVYYCASLDSAAVFDYWGQGTLVTVSS
VL: QSALTQPASVSGSPGQSITISCTGTSSDVGRFNYVSWYQQHPGKAPKLLIYDVSNRPSGVSNRFSGSKSGNTASLTISGLQAEDEADYYCNSYTSSSTLYVFGTGTKVTVL
For the molecule B1, the binding result in experiment [1] is “binds”.

B2: C68.183 (antibody, V domains shown)
VH: EVQLLESGGGLVQPGGSLRLSCVASGFTFRNFAMSWVRQAPGKGLEWVSAISGSGDSTYYADSVKGRFTISRDNSKNTLYLQVNSLRVEDTAIYYCAKGSRGSTDYFDSWGQGTLVTVSS
VL: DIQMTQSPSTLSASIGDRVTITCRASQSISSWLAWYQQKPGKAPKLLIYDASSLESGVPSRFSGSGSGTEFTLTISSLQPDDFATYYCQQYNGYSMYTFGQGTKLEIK
On to B2, for which the binding result in experiment [1] and in experiment [2] was “binds” in each case.

B3: C68.88 (antibody, V domains shown)
VH: QVQLQESGPGLVKPSETLSLTCSVSGGPISSSRYYWGWIRQSPGEGLEWIGTIYYSGSTYYNPSFKSRVTISVDTSKNQFSLKLSSVTAADTAVYYCATRCYDFWSGYYNREMLWFDCWGQGTLVTVSS
VL: NFMLTQPHSVSESPGKTVTISCTRSSGSIASNYVQWYQQRPGSSPTTVIYENNQTPSGVPDRFSGSIDSSSNSASLTISGLKTEDEADYYCQSYDSSVVVFGGGTKLTVL
As to B3, the binding result in experiment [1] and in experiment [2] was “binds” throughout.

B4: C68.185 (antibody, V domains shown)
VH: QVQLVQSGAEVKKPGASVKVSCKTSGYAFTDHYVHWVRQAPGQGLEWMGVINPSGVGTSYAQMFQDRVTLTSDTSTSTVYMVLSSLRSEDTAVYYCVRDDYGVPARGWFDPWGQGTLVTVSS
VL: EVVLTQSPATLSLSPGERATLSCRASQSISSYLAWYQQKPGQAPRLLIYDASNRATGVPARFSGSGSGADFTLTISSLEAEDFALYYCQHRSNWLYTFGQGTKLEIK
With B4, the binding result in experiment [1] and in experiment [3] was “binds” in each case. Besides, the “fold lower binding than to SARS-CoV-1 RBD” value in experiment [2] is around 10 fold.

B5: C68.239 (antibody, V domains shown)
VH: EVQLLESGGGLVQPGGSLRLSCAASGFTFSSYAMSWVRQAPGKGLEWVSAISGGGDNTYYADSVKGRFTISRDNSKNTLYLQMNSLRAEDTAVYFCAKNPITVVPAAWDRGYFDLWGRGTLVTVSS
VL: SYELTQPPSVSVAPRKTARITCGGNNIGSYSVHWYQQRPGQAPVLVVHDDSDRPSGIPERFSGSNSGNTATLTISRVEAGDEADYYCQVWDSSSDHRGVFGGGTKLTVL
For B5, the binding result in experiment [1] and in experiment [2] was “binds” each time.

B6: C68.201 (antibody, V domains shown)
VH: EVQLVQSGAEVKKPGESLKISCTGSGYSFAYYWIGWVRQMPGKGLEWMGNIYPGDSDTRYSPSFQGQITISSDKSISTAYLQWSSLKASDTAMYYCATRYSGTHYVGIDAFEIWGQGTMVTVSS
VL: not shown
In the case of B6, the binding result in experiment [4] and in experiment [5] was “binds” each time.

B7: C68.61 (antibody, V domains shown)
VH: EVQLVQSGAEVKKPGESLKISCKGSAYIFTRYWIGWVRQMPGKGLEWMGIIYPGDSDTRYSPSFQGQVTISADKSISTAYLQWSSLKASDTAMYYCARSGTTNYFDYWGQGTLVTVSS
VL: DIQLTQSPSTLSASVGDRVTITCRASQSISSWLAWYQQKPGKAPKLLIYDASSLDSGVPSRFSGSGSGTDFTLTISSLQPDDFATYYCQQFNSYWTFGQGTKVEIK
In the case of B7, the binding result in experiment [2] was “binds”.

B8: C68.203 (antibody, V domains shown)
VH: EVQLLESGGGLVQPGGSLRLSCTASGFTFSRYALTWVRQAPGKGLECVSAFSGSGDSTYYADSVKGRFTISRDNSKNTLYLQMNSLRAEDTAVYYCAKSPRYNSDYFDFWGQGTLVTVSS
VL: B7 VL with D55E, D70E, F91Y, Y94F, W95I, K102R, V103L
B8: in experiment [1], the binding result is “binds”.

B9: C68.200 (antibody, V domains shown)
VH: B8 VH with C47W, F51I, D56G, S57N, Y59N, S104N
VL: B7 VL with D55E, D70E, F91Y, S93T, Y94F, W95I, Q99H, K102R, V103L
Consider B9, for which the binding result in experiment [1] was “binds”.

B10: C68.327 (antibody, V domains shown)
VH: EVQLLESGGGLVQPGGSLRLSCAASGFTFGSYAMSWVRQAPGKGLEWVSAISGSGGSTYYADSVKGRFTISRDNSKNTLYLQMNSLRAEDTAVYNCAKDLWDGFHWFDSWGQGTLVTVSS
VL: DIQMTQSPSSVSASVGDRVTITCRASQGISSWLAWYQQKPGKAPNLLIYSASSLQSGVPSRFSGSGSGTDFTLTISSLQPEDFATYYCQQANSFPITFGQGTRLEIK
In the case of B10, in experiment [1], the binding result is given as “binds”.
